Measurements as given in the supplement of paper PMC9112550, “Optimization of the antimicrobial peptide Bac7 by deep mutational scanning” (BMC Biology, 2022).

Each sequence was assayed on Escherichia coli TOP10 (assay: shrunken log2 fold change of peptide-encoding DNA abundance (4.5 h post-induction vs induction); higher = less antimicrobial activity (less host growth inhibition)). Conditions: time post-induction: 4.5 h; library: site-saturation at positions 5, 18, 19, 20.
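Further: peptides expressed intracellularly from a pBAD plasmid library in pooled LB shake-flask culture, induced with 0.3% L-arabinose, DNA abundance read by NGS, three biological replicates, DESeq2 with apeglm shrinkage.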

| Sequence | shrunken log2 fold change |
| --- | --- |
| RRIRKRPPRLPRPRPRPWAPPRP | 0.0466 |
| RRIRKRPPRLPRPRPRPNYCPRP | -0.0369 |
| RRIRQRPPRLPRPRPRPECSPRP | -0.0561 |
| RRIRLRPPRLPRPRPRPMIWPRP | -0.0275 |
| RRIRNRPPRLPRPRPRPALHPRP | -0.296 |
| RRIRCRPPRLPRPRPRPHLDPRP | -0.0622 |
| RRIRNRPPRLPRPRPRPMPRPRP | 0.11 |
| RRIRSRPPRLPRPRPRPEACPRP | 1.03 |
| RRIRRRPPRLPRPRPRPVWAPRP | 0.339 |
| RRIRVRPPRLPRPRPRPTMMPRP | -0.494 |
| RRIRARPPRLPRPRPRPMNEPRP | 0.374 |
| RRIRLRPPRLPRPRPRPLHGPRP | 0.0823 |
| RRIRARPPRLPRPRPRPRANPRP | 0.694 |
| RRIRKRPPRLPRPRPRPAFGPRP | 0.564 |
| RRIRFRPPRLPRPRPRPTCEPRP | 0.0933 |
| RRIRKRPPRLPRPRPRPQKDPRP | 0.00486 |
| RRIRARPPRLPRPRPRPTHEPRP | 0.622 |
| RRIRERPPRLPRPRPRPAAWPRP | 0.443 |
| RRIRGRPPRLPRPRPRPSCLPRP | 0.571 |
| RRIRCRPPRLPRPRPRPVFIPRP | -0.612 |
| RRIRCRPPRLPRPRPRPLCQPRP | -0.949 |
| RRIRGRPPRLPRPRPRPECYPRP | 0.25 |
| RRIRGRPPRLPRPRPRPTNWPRP | 0.485 |
| RRIRWRPPRLPRPRPRPSWHPRP | 0.0186 |
| RRIRPRPPRLPRPRPRPAGQPRP | -0.0709 |

| Sequence | shrunken log2 fold change |
| --- | --- |
| RRIRFRPPRLPRPRPRPKCAPRP | -0.0345 |
| RRIRARPPRLPRPRPRPTNKPRP | -0.0139 |
| RRIRRRPPRLPRPRPRPIHAPRP | -0.102 |
| RRIRCRPPRLPRPRPRPRDMPRP | -0.167 |
| RRIRARPPRLPRPRPRPQLRPRP | 0.157 |
| RRIRIRPPRLPRPRPRPSLPPRP | -0.491 |
| RRIRVRPPRLPRPRPRPAQVPRP | 0.427 |
| RRIRSRPPRLPRPRPRPAPHPRP | 0.276 |
| RRIRRRPPRLPRPRPRPVWIPRP | 0.148 |
| RRIRERPPRLPRPRPRPGRHPRP | -0.0636 |
| RRIRGRPPRLPRPRPRPLESPRP | 1.12 |
| RRIRCRPPRLPRPRPRPTNSPRP | -0.336 |
| RRIRCRPPRLPRPRPRPTWVPRP | 0.342 |
| RRIRWRPPRLPRPRPRPPSFPRP | -0.0861 |
| RRIRLRPPRLPRPRPRPIIEPRP | -0.171 |
| RRIRFRPPRLPRPRPRPQWGPRP | -0.139 |
| RRIRDRPPRLPRPRPRPQFWPRP | 0.345 |
| RRIRGRPPRLPRPRPRPMDKPRP | 0.378 |
| RRIRARPPRLPRPRPRPQSWPRP | 0.322 |
| RRIRVRPPRLPRPRPRPADDPRP | 0.203 |
| RRIRERPPRLPRPRPRPCRFPRP | -0.455 |
| RRIRNRPPRLPRPRPRPVVCPRP | -0.06 |
| RRIRMRPPRLPRPRPRPMDDPRP | 0.15 |
| RRIRKRPPRLPRPRPRPMEEPRP | 0.371 |
| RRIRGRPPRLPRPRPRPYGTPRP | -0.0646 |

| Sequence | shrunken log2 fold change |
| --- | --- |
| RRIRHRPPRLPRPRPRPHRSPRP | -0.0796 |
| RRIRYRPPRLPRPRPRPIATPRP | 0.0782 |
| RRIRMRPPRLPRPRPRPYHVPRP | -0.065 |
| RRIRCRPPRLPRPRPRPGGLPRP | 0.17 |
| RRIRDRPPRLPRPRPRPRVGPRP | 0.972 |
| RRIRKRPPRLPRPRPRPVLYPRP | -0.0796 |
| RRIRMRPPRLPRPRPRPCRTPRP | -0.129 |
| RRIRGRPPRLPRPRPRPCQCPRP | 0.268 |
| RRIRGRPPRLPRPRPRPDAKPRP | 2 |
| RRIRYRPPRLPRPRPRPPFLPRP | -0.178 |
| RRIRKRPPRLPRPRPRPCGVPRP | 0.143 |
| RRIRIRPPRLPRPRPRPFTRPRP | 0.114 |
| RRIRHRPPRLPRPRPRPRRFPRP | 0.379 |
| RRIRIRPPRLPRPRPRPLIIPRP | -0.652 |
| RRIRARPPRLPRPRPRPPPMPRP | 1.1 |
| RRIRMRPPRLPRPRPRPYVQPRP | 0.056 |
| RRIRTRPPRLPRPRPRPIRDPRP | -0.288 |
| RRIRFRPPRLPRPRPRPAQVPRP | -0.0516 |
| RRIRSRPPRLPRPRPRPPSDPRP | 0.385 |
| RRIRSRPPRLPRPRPRPNPSPRP | -0.00593 |
| RRIRYRPPRLPRPRPRPYVNPRP | -0.361 |
| RRIRGRPPRLPRPRPRPDVEPRP | 1.27 |
| RRIRFRPPRLPRPRPRPNRHPRP | -0.874 |
| RRIRRRPPRLPRPRPRPLHSPRP | 0.357 |
| RRIRYRPPRLPRPRPRPKSNPRP | -0.206 |

| Sequence | shrunken log2 fold change |
| --- | --- |
| RRIRRRPPRLPRPRPRPICFPRP | 0.496 |
| RRIRDRPPRLPRPRPRPCDGPRP | -0.0192 |
| RRIRTRPPRLPRPRPRPHDTPRP | -0.213 |
| RRIRVRPPRLPRPRPRPFGLPRP | -0.0857 |
| RRIRCRPPRLPRPRPRPQCSPRP | -0.0788 |
| RRIRDRPPRLPRPRPRPLFYPRP | -0.258 |
| RRIRYRPPRLPRPRPRPDCSPRP | -0.315 |
| RRIRHRPPRLPRPRPRPMVLPRP | -0.0459 |
| RRIRYRPPRLPRPRPRPPLTPRP | -0.403 |
| RRIRPRPPRLPRPRPRPIPLPRP | -0.191 |
| RRIRMRPPRLPRPRPRPYQEPRP | -0.0194 |
| RRIRTRPPRLPRPRPRPPMHPRP | 0.141 |
| RRIRGRPPRLPRPRPRPRECPRP | 0.562 |
| RRIRKRPPRLPRPRPRPNHQPRP | -0.376 |
| RRIRPRPPRLPRPRPRPFYNPRP | -0.7 |
| RRIRNRPPRLPRPRPRPCQKPRP | 0.00489 |
| RRIRPRPPRLPRPRPRPVDLPRP | 0.036 |
| RRIRPRPPRLPRPRPRPGRQPRP | 0.742 |
| RRIRERPPRLPRPRPRPCVQPRP | -0.0665 |
| RRIRCRPPRLPRPRPRPNCTPRP | -0.322 |
| RRIRKRPPRLPRPRPRPASEPRP | 0.879 |
| RRIRERPPRLPRPRPRPWPGPRP | -0.0345 |
| RRIRMRPPRLPRPRPRPFNCPRP | -0.643 |
| RRIRKRPPRLPRPRPRPKVVPRP | 0.223 |
| RRIRNRPPRLPRPRPRPINKPRP | -0.56 |

| Sequence | shrunken log2 fold change |
| --- | --- |
| RRIRERPPRLPRPRPRPGFIPRP | -0.256 |
| RRIRLRPPRLPRPRPRPTFTPRP | -0.346 |
| RRIRWRPPRLPRPRPRPAWIPRP | 0.035 |
| RRIRGRPPRLPRPRPRPVYYPRP | 0.164 |
| RRIRSRPPRLPRPRPRPVKHPRP | 0.124 |
| RRIRDRPPRLPRPRPRPMSVPRP | -0.00308 |
| RRIRGRPPRLPRPRPRPMKDPRP | 0.55 |
| RRIRSRPPRLPRPRPRPQQAPRP | 0.0031 |
| RRIRNRPPRLPRPRPRPVLNPRP | -0.261 |
| RRIRVRPPRLPRPRPRPGYNPRP | -0.193 |
| RRIRDRPPRLPRPRPRPQIIPRP | 0.0399 |
| RRIRQRPPRLPRPRPRPEPKPRP | 0.244 |
| RRIRLRPPRLPRPRPRPWDHPRP | -1.04 |
| RRIRYRPPRLPRPRPRPHWWPRP | -0.0763 |
| RRIRFRPPRLPRPRPRPEPAPRP | 0.669 |
| RRIRPRPPRLPRPRPRPGKNPRP | -0.00164 |
| RRIRFRPPRLPRPRPRPLMEPRP | -0.00741 |
| RRIRARPPRLPRPRPRPNSNPRP | -0.0294 |
| RRIRTRPPRLPRPRPRPHFYPRP | -0.224 |
| RRIRSRPPRLPRPRPRPTVSPRP | -0.221 |
| RRIRDRPPRLPRPRPRPCFPPRP | -0.0323 |
| RRIRERPPRLPRPRPRPFFMPRP | -0.0808 |
| RRIRIRPPRLPRPRPRPMVDPRP | -0.0165 |
| RRIRYRPPRLPRPRPRPALIPRP | -0.273 |
| RRIRKRPPRLPRPRPRPHPLPRP | 0.393 |

| Sequence | shrunken log2 fold change |
| --- | --- |
| RRIRGRPPRLPRPRPRPPLWPRP | 1.09 |
| RRIRARPPRLPRPRPRPHEYPRP | -0.0609 |
| RRIRDRPPRLPRPRPRPAHGPRP | -0.0897 |
| RRIRKRPPRLPRPRPRPKIYPRP | -0.0249 |
| RRIRNRPPRLPRPRPRPCVVPRP | -0.0224 |
| RRIRSRPPRLPRPRPRPRAIPRP | 0.134 |
| RRIRNRPPRLPRPRPRPNIEPRP | -0.027 |
| RRIRCRPPRLPRPRPRPALWPRP | 0.621 |
| RRIRNRPPRLPRPRPRPKTGPRP | -0.0778 |
| RRIRPRPPRLPRPRPRPCGKPRP | 0.0102 |
| RRIRYRPPRLPRPRPRPHHEPRP | -0.0815 |
| RRIRWRPPRLPRPRPRPSHTPRP | 0.0847 |
| RRIRKRPPRLPRPRPRPEKEPRP | 0.139 |
| RRIRCRPPRLPRPRPRPGCGPRP | 0.545 |
| RRIRWRPPRLPRPRPRPRPNPRP | 0.273 |
| RRIRQRPPRLPRPRPRPMMMPRP | -0.327 |
| RRIRLRPPRLPRPRPRPRNQPRP | -0.204 |
| RRIRVRPPRLPRPRPRPDFQPRP | -0.163 |
| RRIRMRPPRLPRPRPRPLHLPRP | -0.254 |
| RRIRERPPRLPRPRPRPCQTPRP | -0.397 |
| RRIRRRPPRLPRPRPRPMCYPRP | -0.069 |
| RRIRHRPPRLPRPRPRPEDIPRP | -0.00674 |
| RRIRSRPPRLPRPRPRPMMTPRP | -0.0968 |
| RRIRSRPPRLPRPRPRPNQQPRP | 0.121 |
| RRIRNRPPRLPRPRPRPEIAPRP | -0.0256 |
